Assay results as given in US20220241335A1 (H LEE MOFFITT CANCER CENTER AND RESEARCH INST5ITUTE, published 2022).

How the values were obtained:
[1] = target: Notch1 (as used for the SPR of Example 1); assay: SPR
[2] = target: T1, hNotch 1 (EGF6-EGF13) (human, UniProt P46531 218-526, biotinylated (site not stated)); assay: SPR, biotinylated Notch on chip, 1:1 equilibrium binding model
T1 construct: domain: EGF6-EGF13; Immobilised on the SPR chip through biotin; also called biotinylated Notch1
Experimental: (§1) 100. Next, the binding affinity of each individual variant was determined by surface plasmon resonance. Biotinylated Notch1, Notch2, or Notch3 proteins containing the domains indicated above were immobilized on a surface plasmon resonance sensor chip. Increasing concentrations of WT DLL4 or DLL4.v3 were then flowed over the chip and dissociation constants were determined by fitting the data to a 1:1 equilibrium binding model. As shown in FIG. 4 and Table 3, the binding affinity of DLL4.v3 was at least 3 orders of magnitude stronger than wildtype.

[3] = target: T2, hNotch 2 (EGF6-EGF13) (human, UniProt Q04721 221-530, biotinylated (site not stated)); assay: as above
T2 construct: domain: EGF6-EGF13; Immobilised on the SPR chip through biotin; also called biotinylated Notch2
T2 sequence (looked up): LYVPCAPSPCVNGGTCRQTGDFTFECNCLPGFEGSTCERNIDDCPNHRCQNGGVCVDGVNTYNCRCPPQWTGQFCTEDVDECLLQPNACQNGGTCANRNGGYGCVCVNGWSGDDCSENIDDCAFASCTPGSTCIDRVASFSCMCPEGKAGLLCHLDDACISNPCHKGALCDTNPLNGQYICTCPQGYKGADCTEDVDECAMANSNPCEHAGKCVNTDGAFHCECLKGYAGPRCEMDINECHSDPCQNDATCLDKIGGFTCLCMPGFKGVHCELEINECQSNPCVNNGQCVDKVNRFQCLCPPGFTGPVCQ
Experimental: as §1

[4] = target: T3, hNotch 3 (EGF5-EGF12) (human, UniProt Q9UM47 197-505, biotinylated (site not stated)); assay: as above
T3 construct: domain: EGF5-EGF12; Immobilised on the SPR chip through biotin; also called biotinylated Notch3
T3 sequence (looked up): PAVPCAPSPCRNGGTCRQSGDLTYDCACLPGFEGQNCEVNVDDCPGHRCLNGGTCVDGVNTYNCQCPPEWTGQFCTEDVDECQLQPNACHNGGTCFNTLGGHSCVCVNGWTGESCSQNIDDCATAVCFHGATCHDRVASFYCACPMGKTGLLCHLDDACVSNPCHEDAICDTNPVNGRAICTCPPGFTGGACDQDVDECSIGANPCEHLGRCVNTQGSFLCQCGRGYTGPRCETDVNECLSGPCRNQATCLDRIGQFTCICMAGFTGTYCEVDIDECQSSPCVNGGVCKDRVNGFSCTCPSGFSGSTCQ
Experimental: as §1

[5] = target: T1, hNotch 1 (EGF6-EGF13); assay: SPR
Experimental: as §1

[6] = target: T2, hNotch 2 (EGF6-EGF13); assay: SPR
Experimental: as §1

[7] = target: T3, hNotch 3 (EGF5-EGF12); assay: SPR
Experimental: as §1

## wild type rat DLL4 (from UniProt D3ZHH1 27-401) (ligand)
[1]
  Kd: 12.7 µM

B1: WT hDLL4 (N-EGF3) (ligand)
chain: SGVFQLQLQEFINERGVLASGRPCEPGCRTFFRVCLKHFQAVVSPGPCTFGTVSTPVLGTNSFAVRDDSSGGGRNPLQLPFNFTWPGTFSLIIEAWHAPGDDLRPEALPPDALISKIAIQGSLAVGQNWLLDEQTSTLTRLRYSYRVICSDNYYGDNCSRLCKKRNDHFGHYVCQPDGNLSCLPGWTGEYCQQPICLSGCHEQNGYCSKPAECLCRPGWQGRLCNECIPHNGCRHGTCSTPWQCTCDEGWGGLFCDQDLNYCTHHSPCKNGATCSNSGQRSYTCTCRPGYTGVDCE
notes: also called WT DLL4; wildtype
[2]
  Kd: 17.9 µM
[3]
  Kd: 35.7 µM
[4]
  Kd: 22 µM

B2: 3a.5_E12 (N-EGF3) (ligand)
chain: SSVFQLQLQEFINERGVLASGRPCEPGCRTFFRVCLKHFQAVVSPGPCTFGTVSTPVLGTNSFAVRDDSSGGGRNPLQLPLNFTWPGTFSLIIEAWHAPGDDLRPEALPPDALISKFAIQGSLAVGQNWLLDEQTSTLTRLRYSYRVICSDNYYGDNCSRLCKKRNDYFGHYVCQPDGNPSCLPGWTGEYCQQPICLSGCHEQNGYCSKPAECLCRPGWQGRLCNECIPHPGCRHGTCSTPWQCLCDEGWGGLYCDQDLNYCTHHSPCKNGATCRNSGPRSYTCTCRPGYTGVDCE
notes: also called DLL4.v3; N3a.5_E12
[5]
  binding affinity relative to wildtype: ~1000 fold
[6]
  binding affinity relative to wildtype: ≥ 1000 fold
[7]
  binding affinity relative to wildtype: ~1000 fold
[2]
  Kd: 0.02 µM
[3]
  Kd: 0.0314 µM
[4]
  Kd: 0.0273 µM
